This passage reports amyloid nucleation score results from the supplement of paper PMC12042874.

± gives the uncertainty stated by the source.

This data set can be described thus: amyloid nucleation score (Sup35N fusion, yeast selection) (log enrichment); library NNK1; higher = more nucleation; inactive = no reads after selection. In outline: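 Using DiMSum, nucleation scores were taken as the log enrichment of output over input reads, centred on the mode score of non-aggregating sequences. The input and output reads came from Illumina sequencing of plasmid inserts, with sequences under 100 input reads excluded. The yeast were psi-negative, expressed Sup35N fused to peptides of 20 random codons, were induced with 100 μM copper sulfate for 24 hours, and were grown 7 days at 30°C on medium lacking adenine and uracil.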
Turning to SYLFWDRCYSA, the amyloid nucleation score is -0.247 ± 0.4.

Substance SYLGCVHWSRRTDLVTFFDF registered an amyloid nucleation score of 0.495 ± 0.27.

SYLNPTVMILGFYP: the amyloid nucleation score was found to be 0.825 ± 0.41.

SYPESTTRNF: the amyloid nucleation score was -0.209 ± 0.39.

In turn, SYRIMPLMCILNCLFNCIYI came in with an amyloid nucleation score of 4.8 ± 0.059.

SYRPFLMLGAQLQPYRVSGS: the amyloid nucleation score is 1.32 ± 0.6.

As to SYRSYGSSSCSVWRTAAGDQ, the amyloid nucleation score was 2.9 ± 0.084.

The substance SYTRPILIWSLNRFSAG gave an amyloid nucleation score of 1.26 ± 0.34.

Substance SYVKDNISVSGADILTGAIC had an amyloid nucleation score of -0.367 ± 0.48.

SYVYHPTSRLVWIIRMIT gave an amyloid nucleation score of 0.5 ± 0.38.

For TAIIPPHFLASDSFRWSCAC, the amyloid nucleation score came out at 0.008 ± 0.34.

Substance TALESFRHCLVQSNPGSQVV showed an amyloid nucleation score of -0.217 ± 0.5.

TARRKSYDIFMLIMWFVAYY: the amyloid nucleation score was 2.53 ± 0.12.

The substance TASGVDIVRRGCPRLVMLVV registered an amyloid nucleation score of -0.42 ± 0.43.

Take TASNDYLDIDPSMDQSRWCG: the amyloid nucleation score turned out to be 0.518 ± 0.27.

With TAYWIVYRVKGLLRFFSRLA, the amyloid nucleation score worked out at 0.011 ± 0.36.

Take TCIARHLQILSVNRCCVRFA: the amyloid nucleation score amounted to 0.062 ± 0.44.

Turning to TCIIFIYNSWSSLQPFMSGM, the amyloid nucleation score is 2.65 ± 0.21.

In turn, TCIWDKPVSSGL returned an amyloid nucleation score of -0.543 ± 1.

In the case of TCLWSYSNAFENPR, the amyloid nucleation score stood at 1.85 ± 0.31.

In turn, TCRLKLVFLNVTVKSKFCVL registered an amyloid nucleation score of -0.362 ± 0.76.

As to TCSGA, the amyloid nucleation score was -0.073 ± 0.39.

Substance TCVCQFIWG displayed an amyloid nucleation score of -0.086 ± 0.79.

Substance TDLMLYYCYSAVPCWDFPAS had an amyloid nucleation score of 0.073 ± 1.

In turn, TDRMGIQCGRVSLRSRYIRC displayed an amyloid nucleation score of -0.198 ± 0.87.

Consider TDVSVKLSVMMH, for which the amyloid nucleation score was found to be 1.53 ± 0.16.

Regarding TEAMTGYVLNNNWYSQLYVF, the amyloid nucleation score was -0.601 ± 1.1.

Consider TECSSSGIALMWVFWRSICT, for which the amyloid nucleation score result is “inactive”.

TEDDYYSGLRRGKDKEGCSF displayed an amyloid nucleation score of -0.084 ± 0.44.

On to TEDPYSGPILKEPVDLCWLE, for which the amyloid nucleation score stood at 0.494 ± 0.74.

Substance TEFFGVGLRMKSNGVWWISG showed an amyloid nucleation score of -0.65 ± 1.4.

Substance TEITC came in with an amyloid nucleation score of 0.837 ± 0.27.

As for TEKAPGTGAKQANSKSSAYA, the amyloid nucleation score entry is “inactive”.

Take TEQGMWHSLAGGR: the amyloid nucleation score result is “inactive”.

Turning to TEYISG, the amyloid nucleation score is -0.026 ± 0.97.

Turning to TFHWMKDAALSQSSVKRTMA, the amyloid nucleation score worked out at 0.359 ± 0.59.

TFLEIKVRD showed an amyloid nucleation score of -0.496 ± 0.19.

Regarding TFLGLAGSHCLFSFVANSAR, the amyloid nucleation score is 1.24 ± 0.28.

For TFLYVWSTSDSYKK, the amyloid nucleation score is 0.148 ± 0.61.

The substance TFPGEWHWERTIVIVPNFFH had an amyloid nucleation score of 2.03 ± 0.15.

With TFTCSFTQLRQLFFFVSQGC, the amyloid nucleation score is 0.214 ± 0.46.

Turning to TFTVAEQVALE, the amyloid nucleation score is 0.415 ± 0.47.

Consider TFVQF, for which the amyloid nucleation score was -0.066 ± 0.51.

The substance TFVSLATTDFPPNFSLKLFV displayed an amyloid nucleation score of -0.579 ± 0.49.

TFVVN showed an amyloid nucleation score of 0.677 ± 0.3.

TFYCYLSLGSHEKKADFSNN registered an amyloid nucleation score of 2.21 ± 0.15.

Regarding TFYLSRDIRLYFSWN, the amyloid nucleation score amounted to 7.83 ± 0.049.

TFYMTSSLST gave an amyloid nucleation score of 0.028 ± 0.67.

TGGTNGHKASCEVRFTVTER returned an amyloid nucleation score of 1.08 ± 0.41.

As for TGKDLRAEHENFVARNHFPM, the amyloid nucleation score is -0.954 ± 1.4.

TGNTIAVRLLGKTNWTLIKT yielded an amyloid nucleation score of -0.1 ± 0.23.

Consider TGSLLTSTWS, for which the amyloid nucleation score was -0.474 ± 0.78.

In the case of TGTDVQGRSRLSDRAWGGYD, the amyloid nucleation score was -0.098 ± 0.36.

TGWEVV yielded an amyloid nucleation score of -1.16 ± 0.75.

With THAVREFWDLGGVNEENYGW, the amyloid nucleation score entry is “inactive”.

In turn, THWGRVELMFFRSSKHRLT had an amyloid nucleation score of -0.334 ± 1.

As for TIALRMNRINLDFKYCFNSF, the amyloid nucleation score was 1.49 ± 0.69.

For TIAMCISLIGIDSYY, the amyloid nucleation score amounted to 0.997 ± 0.29.

Turning to TIASTGVFNM, the amyloid nucleation score entry was “inactive”.

In turn, TIATLFIFRDLFNFECLNSH returned an amyloid nucleation score of 4.61 ± 0.1.

Substance TISGAVRGCGGCSIRWLMSL showed an amyloid nucleation score of -0.663 ± 0.33.

Substance TIVGWSITIVRLHSFIFFNG gave an amyloid nucleation score of 0.021 ± 0.35.

As to TIWCVD, the amyloid nucleation score was determined as 1.01 ± 0.28.

The substance TKHRELVLPGLVFTTEYCLV gave an amyloid nucleation score of -0.693 ± 1.6.

With TKIRCDRWTLYIKGITYRAL, the amyloid nucleation score amounted to 0.86 ± 1.1.

In turn, TKNSLGHNMLIDWGSCVGGC registered an amyloid nucleation score of 1.23 ± 0.31.

For the substance TKQFEPFCLRLSVVMLLLQE, the amyloid nucleation score came out at 0.034 ± 0.45.

TKSTYSSTVTKRTSASCVTL returned an amyloid nucleation score of 0.215 ± 1.1.

The substance TKWAVDY had an amyloid nucleation score of 0.347 ± 0.28.

In turn, TLCQCKLT had an amyloid nucleation score of -0.286 ± 0.67.

Consider TLESCGW, for which the amyloid nucleation score was determined as 0.773 ± 0.22.

Substance TLHVEWSSVIAMLFKMSCGL gave an amyloid nucleation score of -0.785 ± 0.88.

Substance TLISSGNVHYMWKVTFLNNR registered an amyloid nucleation score of 4.8 ± 0.063.

On to TLKHEQAREGFFAM, for which the amyloid nucleation score was -0.053 ± 0.56.

Substance TLLELLCEWNTVHKGSP had an amyloid nucleation score of 0.699 ± 0.3.

With TLLWFNEFILSGPNFRIGVV, the amyloid nucleation score came out at 0.857 ± 0.58.

The substance TLNIVHLYME gave an amyloid nucleation score of 4.5 ± 0.065.

In the case of TLNVFDH, the amyloid nucleation score is -0.421 ± 0.4.

In turn, TLPYSKKSLTQFRRGAKICY registered an amyloid nucleation score of 0.588 ± 0.56.

Take TLRVLFFKCLGHIRLLVRGF: the amyloid nucleation score was -1.64 ± 2.7.

For the substance TLRVVMKWLAHTWFRHTLMR, the amyloid nucleation score is -0.083 ± 0.42.

Turning to TLTDSN, the amyloid nucleation score is -0.221 ± 0.53.

TLTSPWDSYKRFCKNSPLFN registered an amyloid nucleation score of 0.353 ± 1.4.

Substance TLVFRYKSDGCQSLRVRLTF returned an amyloid nucleation score of 0.084 ± 0.32.

The substance TLVFYRVQGFGIPKSQLTGE gave an amyloid nucleation score of -0.675 ± 1.1.

In turn, TLVLSLAHPCASGNKPDKSG displayed an amyloid nucleation score of 0.863 ± 0.32.

TLWYLLQITYVLKFKW: the amyloid nucleation score was 0.301 ± 0.4.

For TLYIYAMEDSGGFEDGGMCI, the amyloid nucleation score is 4.18 ± 0.1.

TMCCTLDARRLLLSMADFYC showed an amyloid nucleation score of 5.42 ± 0.072.

On to TMISLAFIIYPLNMAPMYME, for which the amyloid nucleation score stood at 1.97 ± 0.45.

As to TMPNSFRWCLNGRVRRDRFC, the amyloid nucleation score was -0.215 ± 0.97.

In turn, TMSSFDGPSV had an amyloid nucleation score of -2.58 ± 1.8.

In the case of TNVFGILYFEYFLVLDG, the amyloid nucleation score is 0.208 ± 0.3.

TNVMLPNGVGFLAPAVHCES showed an amyloid nucleation score of 1.04 ± 0.51.

In turn, TNVYESSVSFVMMGS returned an amyloid nucleation score of 0.364 ± 0.26.

For TPAFTIFSWAIGEDYLFVEM, the amyloid nucleation score came out at 0.777 ± 0.9.

Substance TPLWKSII registered an amyloid nucleation score of -0.046 ± 0.68.

In the case of TQPLEIK, the amyloid nucleation score is -0.165 ± 1.5.

TQVIAPVVCMAIDYCANITV displayed an amyloid nucleation score of 4.96 ± 0.099.

As to TRGCLRPATSKSGMRPW, the amyloid nucleation score was 0.056 ± 0.69.

TRHFVTVFGCVDNRVEYLNG: the amyloid nucleation score is 3.22 ± 0.1.

In the case of TRKLFTFMLDRMYLMVGRRL, the amyloid nucleation score was -0.294 ± 0.6.

Substance TRLGYFNFGSLHVSLWDFML displayed an amyloid nucleation score of 0.6 ± 0.28.

Consider TRRSRFW, for which the amyloid nucleation score was found to be 1.45 ± 0.35.
